This assay concerns the target full length T216A Mos1 transposase (Drosophila mauritiana). In words: crystal structure; Mos1 strand transfer complex (STC): T216A Mos1 transposase and strand transfer product DNA at 50 uM each in 25 mM PIPES-NaOH pH 7.5, 250 mM NaCl, 20 mM MgCl2, 1 mM DTT; sitting drop, 30% (v/v) MPD, 0.1 M sodium cacodylate pH 6.5, 0.2 M magnesium acetate; 3.3 Å; one STC in the asymmetric unit.

Turning to “full length T216A Mos1 transposase (enzyme)”, the stoichiometry N (as a rule, a count of units in the complex or per binding partner) stood at 2.

The values are drawn from article PMC5481204.
